Source: patent US20090233993A1, “COMPOSITIONS AND METHODS FOR INHIBITING GSK3 ACTIVITY AND USES THEREOF” (Burnham Institute for Medical Research, priority 2008, published 2009)
Entries after “also recorded” stand apart in the source; their conditions may differ.

Legend:
Aβ generation = Aβ generation / APP processing in N2aSwe cells overexpressing FG01 (IP-Western blot); assay type: cell-based, mouse
Procedure: To investigate FG01's effects on Aβ generation, the His6-tagged recombinant FG01 was overexpressed in N2aSwe cells. The levels of βCTF, APP, sAPPα and secreted and intracellular Aβ were then quantified in the transfected cells and compared to those parental cells.
The His6-tagged FG01 was overexpressed in N2aSwe cells. The secreted and intracellular Aβ were immunoprecipitated by 4G8. The precipitated peptides and sAPPα, βCTF, full length APP and FG01 were analyzed by Western blots. α-tubulin was used as loading control. The levels of the proteins were quantified by densitometry and normalized and compared to those in vector transfected control.
To corroborate this, FG01 was over expressed in N2aSwe cells.

GSK-3α/β [1] = assay: phospho-GSK-3α (Ser21)/GSK-3β (Ser9) Western blot in mouse N2a/N2aSwe cells; assay type: cell-based
Excerpt: The accumulation of βCTF can also be attributed to decrease in γ-secretase cleavage. However, the Notch cleavage was not altered by overexpression of the recombinant FG01 (FIG. 9A). […] Thus, the activities of GSK-3α/β were examined with or without overexpressing FG01. First, the levels of phospho-GSK3α at Ser21 and GSK-3β at Ser9 (the inactivated forms of GSK3) were quantified using the specific antibodies.
The levels of the recombinant Notch (NotchΔE with Myc-tag) and the γ-secretase cleaved Notch fragment (NICD) were quantified by Western blotting using myc antibody and an antibody specific to processed Notch followed by densitometry. […] The results represent at least four independent experiments.
(§1) The levels of total GSK-3 were used as normalization factors.
(§2) Although the possibility that FG01 may modulate substrate specificity or accessibility to γ-secretase can not be excluded, it is equally possible that FG01 regulates other proteins/pathways functioning in APP processing and Aβ generation. […] Thus, the activities of GSK-3α/β were studied in the presence or absence of FG01 overexpression by examining levels of phospho-GSK-3α (Ser 21) and phospho-GSK-3β (Ser 9) (which represent inactivated forms of GSK-3) and by in vitro kinase assays.

GSK-3α/β [2] = assay: phospho-GSK-3α/β Western blot in human HeLaSwe and HEK293 cells; assay type: cell-based
Excerpt: Expression of β-catenin, inactivated phospho-GSK-3β, total GSK-3, APP, β-CTF and FG01 in transfected human HEK293 cells were shown by Western blots.
as §2

GSK-3α/β [3] = assay: phospho-GSK-3α/β Western blot in rat PC12 cells; assay type: cell-based; details: FG01 overexpression
Excerpt: as §2

CDK5 = CDK5 levels by Western blot in transfected HeLa and MFB cells; assay type: cell-based, mouse and human; details: FG01-transfected HeLa and MFB cells
Excerpt: The expression of CDK5, FG01 and α-tubulin were detected by Western blots in transfected HeLa and MFB cells.

PKA = PKA in vitro activity and CREB phosphorylation in FG01-transfected cells; assay type: cell-based, mouse
Procedure: After lysis, cell lysates were assayed for PKA activity, using a commercial kit and following the manufacturer's protocol (Upstate, catalog number 17-134). n=4.
Commercial kits were used to assay in vitro activities of GSK-3β (Sigma) and PKA (Upstate). For GSK-3α activity, a commercial GSK-3β activity assay kit was used but the procedure to immunoprecititate GSK-3β was replaced with immunoprecipitation of GSK-3α using an anti-GSK-3α antibody (Cell Signaling). cAMP levels were assayed using a commercial kit (Biovision).
Inhibition of GSK-3 activity via phosphorylation of serine 21 in GSK-3α and serine 9 in GSK-3β can be mediated by protein kinase A (PKA) (Fang et al., 2000), so whether FG01 regulates PKA activity was studied. […] Moreover, increased sAPPα secretion upon FG01 overexpression (FIG. 29A) is also likely due to PKA activation, because PKA can stimulate budding of APP-containing vesicles from the Trans-Golgi Network (TGN) and facilitates sAPPα generation (Xu et al., 1996).

β-catenin = β-catenin level in mouse N2a cells (Western blot); assay type: cell-based; details: FG01 overexpression
Excerpt: as §1

3×Tg AD mice = assay: FG01 transgenic mice crossed with triple transgenic (3×Tg) AD mice, brain analysis; assay type: in vivo, mouse
Excerpt: Brain-specific FG01 transgenic mice were generated using a FG01 expression cassette. FG01 has an N-terminal Myc tag and is driven by the human Thy-1 promoter for neuron-specific expression. A SV40 polyA fragment is linked at the 3′ end for enhancing expression. Genotyping P5 primer was complementary to hThy1 sequence. Genotyping P3 primer was complementary to SV40/Poly A sequence. Reverse transcription primer RT-P5 was complementary to sequence on the 5′ side of the FG01 sequence. Hemizygous FG01 transgenic mice were crossed with homozygous triple transgenic (3×Tg) AD mice harboring mutations in human APP and tau genes on a presenilin 1 (PS1) mutant background (Oddo et al., 2003). Procedures involving animals and their care conformed to institutional guidelines (Animal Resources Department at Burnham Institute for Medical Research).
FG01/3×Tg mice and littermate controls on a 3×Tg background were sacrificed at 11 months of age. Half of the brain was used for immunoblot analysis and the other half was paraffin-embedded for immunohistochemistry. Sagittal brain sections (4 μm) were deparaffinized, hydrated, and then immunostained with anti-Aβ antibody (6E10), anti-phosphorylated tau antibody (PHF-1), or anti-synapsin antibody. After additional incubation with biotinylated secondary antibody, samples were incubated in ABC Elite (HRP) reagent (Vector Laboratories). Reactions were visualized by developing in DAB substrates (Vector Laboratories). All samples were visualized under a light microscope.
FG01 transgenic mice were crossed with triple transgenic (3×Tg) AD mice harboring mutations in human APP, tau and presenilin 1 (PS1) genes (Oddo et al., 2003).

[4] = FG01-transfected N2aSwe cells, 5 mM LiCl 4 hrs
[5] = FG01 overexpression in N2aSwe cells
[6] = FG01/3×Tg vs 3×Tg littermates, 11 months

B1: FG01: 141 amino acid transmembrane protein encoded by mouse retrogene fg01 (SEQ ID NO:2); expressed from transfected vector or transgene (protein)
chain: MQSQQRNIGYFNHLKADSRNITYSMTFSTKSSNQNFIIFLNEVQAAIIGHERCDLLPVLNELHPDALPDGRIWLFGLNPYFFQHNSLCMRGTPKRIGLQGCAQVGFLVLFVMPLLIPSVTAELPGSSETTTLAHLAGATGP
modifications: Myc and His6 tags; homo sapien
notes: expressed from transfected vector or transgene
Aβ production in the presence of lithium (Aβ generation; [4]): could not further reduce | levels of extracellular and intracellular Aβ (Aβ generation; [5]): dramatically reduced | levels of total APP (Aβ generation; [5]): not affected | sAPPα level (Aβ generation; [5]): stimulated; also recorded: greatly increased | βCTF level (Aβ generation; [5]): greatly accumulated; also recorded: greatly increased | levels of secreted and intracellular Aβ, reduction (Aβ generation; His6-tagged FG01 overexpressed in N2aSwe cells vs control, Aβ40 and 42 equally reduced): more than 50% | Aβ levels in LiCl-pretreated cells (Aβ generation; N2a/swe cells pretreated with 5 mM LiCl for 24 hrs before FG01 transfection): did not further decrease | GSK-3α/β activity in the presence of lithium (GSK-3α/β [1]; [4]): could not further reduce | GSK-3 activities (inactivated phospho-GSK-3β) (GSK-3α/β [1]; FG01 overexpression, mouse N2a cells, Western blot): decreases | phospho-GSK-3α (Ser21) and phospho-GSK-3β (Ser9) levels (inactivated forms) (GSK-3α/β [1]; FG01 overexpression, mouse N2aSwe cells): more GSK-3α/β were phosphorylated; also recorded: more highly phosphorylated | GSK-3 activities (inactivated phospho-GSK-3β) (GSK-3α/β [2]; FG01 expression, human HEK293 cells, Western blot): decreases | phospho-GSK-3α (Ser21) and phospho-GSK-3β (Ser9) levels (GSK-3α/β [2]; FG01 overexpression, human HeLaSwe and HEK293 cells): more highly phosphorylated | phospho-GSK-3α (Ser21) and phospho-GSK-3β (Ser9) levels (GSK-3α/β [3]): more highly phosphorylated | levels of CDK5 (CDK5): did not change | PKA activity (PKA; FG01-transfected N2a/Swe cells vs control): significantly increase; also recorded: significantly more PKA activity | phosphorylation of CREB (PKA substrate) (PKA; FG01 overexpression): increased | level of β-catenin (β-catenin): increases | levels of the synaptic marker PSD-95 (3×Tg AD mice; 3×Tg mouse brains with FG01 overexpression): markedly increased | Aβ generation in brain (3×Tg AD mice; [6]): reduced | GSK-3 activity in brain (3×Tg AD mice; [6]): reduced | PKA activity in brain (3×Tg AD mice; [6]): dramatically increased | tau phosphorylation in brain (3×Tg AD mice; [6]): reduced | number of Aβ-immunostaining-positive neurons (3×Tg AD mice; hippocampus and cortex, immunohistochemistry 6E10): significantly decreased | number of phosphorylated tau-immunostaining-positive neurons (3×Tg AD mice; hippocampus and cortex, immunohistochemistry PHF-1): significantly decreased | synapsin immunostaining (3×Tg AD mice; hippocampus, vs 3×Tg mice without FG01): much higher immunoreactivity
